Assay results published in patent US20260167718A1 (Merck Sharp & Dohme, published 2026).
Substitutions are numbered along the chain they refer to. Names may count otherwise.

B1: Chimeric anti-ILT3 52B8 mouse VH/human IgG4 (S228P):mouse VL/human Kappa (antibody)
heavy: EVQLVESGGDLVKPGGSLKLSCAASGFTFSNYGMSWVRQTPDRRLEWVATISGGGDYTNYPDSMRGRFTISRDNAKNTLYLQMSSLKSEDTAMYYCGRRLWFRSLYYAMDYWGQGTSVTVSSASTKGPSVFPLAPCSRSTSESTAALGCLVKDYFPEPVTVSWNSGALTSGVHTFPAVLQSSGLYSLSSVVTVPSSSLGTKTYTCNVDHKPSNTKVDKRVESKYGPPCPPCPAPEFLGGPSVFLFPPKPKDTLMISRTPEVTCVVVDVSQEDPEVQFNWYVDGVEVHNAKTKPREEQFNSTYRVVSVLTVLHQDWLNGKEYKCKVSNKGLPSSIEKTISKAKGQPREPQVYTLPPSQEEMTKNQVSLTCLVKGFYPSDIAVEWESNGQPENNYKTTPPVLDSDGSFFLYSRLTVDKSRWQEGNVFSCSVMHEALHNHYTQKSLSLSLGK
light: NIVLTQSPASLAVSLGQRATISCRASEKVDSFGNSFMHWYQQKPGQPPKLLIYLTSNLDSGVPARFSGSGSRTDFALTIDPVEADDAATYYCQQNNEDPYTFGGGTKLEIKRTVAAPSVFIFPPSDEQLKSGTASVVCLLNNFYPREAKVQWKVDNALQSGNSQESVTEQDSKDSTYSLSSTLTLSKADYEKHKVYACEVTHQGLSSPVTKSFNRGEC
notes: also called mAb 73; c52B8
B2: Mouse anti-ILT3 mAb 52B8 IgG2a/Kappa (antibody)
heavy: EVQLVESGGDLVKPGGSLKLSCAASGFTFSNYGMSWVRQTPDRRLEWVATISGGGDYTNYPDSMRGRFTISRDNAKNTLYLQMSSLKSEDTAMYYCGRRLWFRSLYYAMDYWGQGTSVTVSSAKTTAPSVYPLAPVCGDTTGSSVTLGCLVKGYFPEPVTLTWNSGSLSSGVHTFPAVLQSDLYTLSSSVTVTSSTWPSQSITCNVAHPASSTKVDKKIEPRGPTIKPCPPCKCPAPNLLGGPSVFIFPPKIKDVLMISLSPIVTCVVVDVSEDDPDVQISWFVNNVEVHTAQTQTHREDYNSTLRVVSALPIQHQDWMSGKEFKCKVNNKDLPAPIERTISKPKGSVRAPQVYVLPPPEEEMTKKQVTLTCMVTDFMPEDIYVEWTNNGKTELNYKNTEPVLDSDGSYFMYSKLRVEKKNWVERNSYSCSVVHEGLHNHHTTKSFSRTPGK
light: NIVLTQSPASLAVSLGQRATISCRASEKVDSFGNSFMHWYQQKPGQPPKLLIYLTSNLDSGVPARFSGSGSRTDFALTIDPVEADDAATYYCQQNNEDPYTFGGGTKLEIKRADAAPTVSIFPPSSEQLTSGGASVVCFLNNFYPKDINVKWKIDGSERQNGVLNSWTDQDSKDSTYSMSSTLTLTKDEYERHNSYTCEATHKTSTSPIVKSFNRNEC
notes: also called p52B8; LB181.52B8.1B1
B3: Rat anti-ILT3 mAb 24A4 IgG2a/Kappa (antibody, V domains shown)
VH: QVQLKESGPGLVQASETLSLTCTVSGFSLTSYCVNWVRQPSGKGPEWLGRFWYDEGKVYNLTLESRLSISGDTSKNQVFLKMNRLRTDDTGTYYCTRDRDTLGITGWFAYWGQGTLVTVSS
VL: ETVMTQSPTSLSASIGERVTLNCKASQSVGINVDWYQQTPGQSPKLLIYGSANRHTGVPDRFTGSGFGSGFTLTISNVEPEDLGVYYCLQYGSVPYTFGPGTKLELK
notes: Rat IgG2a/Kappa; also called p24A4; LB184.24A4.1A1
B4: Rat anti-ILT3 mAb 37C8 IgG2a/Kappa (antibody, V domains shown)
VH: B3 VH with L102M
VL: B3 VL
notes: Rat IgG2a/Kappa; also called p37C8; LB184.37C8.1A3.1B1
B5: Rat anti-ILT3 mAb 20E4 IgG2a/Kappa (antibody, V domains shown)
VH: QVQLKESGPGLVQASETLSLTCTVSGFSLTSYSVNWVRQPSGKGLEWMGRFWYDGGTAYNSTLESRLSISGDTSKNQVFLKMNSLQTDDTGTYYCTRDRDTMGITGWFAYWGQGTLVTVSP
VL: B3 VL with I31V, G70D, P100A
notes: Rat IgG2a/Kappa; also called p20E4; LB184.20E4.1E1.1D1
B6: Rat anti-ILT3 mAb 40A6 IgG2a/Kappa (antibody, V domains shown)
VH: B3 VH with C33S, V34I, P40S, L48M, K57I, V58A, R84S, D88G, L102V
VL: B3 VL with I31V, G70D, N77D, P100A
notes: Rat IgG2a/Kappa; also called p40A6; LB184.40A6.1C1
B7: humanized anti-ILT3 monoclonal antibody 9B11 (antibody, V domains shown)
VH: EVQLVESGGGLVKPGGSLRLSCAASGFAFSSYDMSWVRQAPGKGLEWVSTISSSGSYTYYPDSVKGRFTISRDNAKNSLYLQMNSLRAEDTAVYYCARLWGAMDYWGQGTLVTVSS
VL: DIQMTQSPSSLSASVGDRVTITCRASQGLTNDLHWYQQKPGKAPKRLIYYASQSISGVPSRFSGSGSGTEFTLTISSLQPEDFATYYCQQSNSWPFTFGQGTKLEIK

The binders below were run against T1, Rhesus monkey ILT3 expressed on CHO-K1 cells (rhesus monkey (Macaca mulatta)) (assay: cELISA, CHO rhesus ILT3 cells).
T1 construct: whole, on cells; also called rhILT3; CHO-rhesus ILT3

| EC50 [µg/mL] | Binder |
| --- | --- |
| 0.091 | B1 |
| 23.2 | B2 |
| 21.3 | B3 |
| 9.48 | B4 |
| 18 | B5 |
| 25.9 | B6 |

What follows are binders tested against T2, Human ILT3 (LILRB4) extracellular domain with C-terminal His Tag (human, UniProt Q8NHJ6 22-259) (assay: SPR (Biacore), human ILT3-His).
T2 construct: the claims count residues 1-238 as the extracellular domain; also called human ILT3-His; ILT3_H

| Kd [pM] | Binder |
| --- | --- |
| 658 | B2 |
| 20.5 | B3 |
| 11.8 | B4 |
| 6990 | B5 |
| 1790 | B6 |

The binders below were run against T3, human ILT3 expressed on cells (human, UniProt Q8NHJ6 22-448) (assay: cELISA, CHO human ILT3 cells).
T3 construct: whole, on cells; also called huILT3; LILRB4

| EC50 [µg/mL] | Binder |
| --- | --- |
| 0.064 | B1 |
| 0.0155 | B2 |
| 21.4 | B3 |
| 7.72 | B4 |
| 1.99 | B5 |
| 17.9 | B6 |

These binders were tested against T1, Rhesus monkey ILT3 expressed on CHO-K1 … (assay: cell-based ELISA on CHO-K1 cells expressing Rhesus monkey ILT3, HRP anti-mouse IgG, OD 450-650 nm).

| EC50 (read off the curve) [µg/mL] | Binder |
| --- | --- |
| ~0.05 | B7 |

Each binder was assayed against T2, Human ILT3 (LILRB4) extracellular … (assay: SPR (Biacore), human ILT3-His; Table 7 value; Table 5 gives 1.79 × 10^-09 M).
Method: The binding kinetics and affinities of anti-human ILT3 clones for human or rhesus ILT3-His tagged recombinant protein were measured by surface plasmon resonance using a Biacore™ T200 system (GE Healthcare, Piscataway, NJ). HBS-EP+ buffer (BR-1006-69) was used as the running buffer. Anti-human Fc antibody (Human Fc Capture Kit, BR100839, GE Healthcare) was immobilized via amine coupling chemistry in all four flow cells on a Series S CM5 sensor chip (BR100530 or 29149603, GE Healthcare) following manufacturer instructions. Flow cell 1 was used as reference for background subtraction and was not used for capture. […] Following each injection cycle, all four flow cells were regenerated using 30 second injection of 3M MgCl₂ solution at a flow rate of 10 μL/minute. Reference subtracted sensorgrams were fit to a 1:1 Langmuir Binding Model in the Biacore™ T200 Evaluation Software (Version 2.0) to determine the association (ka) and dissociation (kd) rate constants and the equilibrium dissociation constant KD (=kd/ka).
Table 7 summarizes the binding kinetics and affinities for the ani-human ILT3 antibodies to recombinant human or rhesus ILT3.

| Kd [pM] | Binder |
| --- | --- |
| 713 | B6 |

Target: T4, rhesus ILT3-His tagged recombinant protein (rhesus monkey (Macaca mulatta))
T4 construct: also called ILT3_MM; not shown: His tag
T4 chain: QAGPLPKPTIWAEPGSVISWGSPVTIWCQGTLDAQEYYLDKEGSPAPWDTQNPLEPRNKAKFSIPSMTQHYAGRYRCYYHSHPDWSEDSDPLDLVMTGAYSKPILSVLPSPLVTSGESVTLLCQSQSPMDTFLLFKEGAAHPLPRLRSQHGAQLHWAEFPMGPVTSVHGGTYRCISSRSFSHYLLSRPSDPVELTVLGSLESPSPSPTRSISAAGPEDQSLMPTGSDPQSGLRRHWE
Test: SPR (Biacore), rhesus ILT3-His
How it was run: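 Antibodies captured on anti-human Fc surface, with human or rhesus ILT3-His as analyte in HBS-EP+ running buffer; reference flow cell subtracted, regeneration with 3M MgCl₂. ka and kd obtained from 1:1 Langmuir fits, KD = kd/ka.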

| Kd [pM] | Binder |
| --- | --- |
| 9500 | B1 |
| 24400 | B2 |
| 126 | B3 |
| 145 | B4 |
| 18200 | B5 |
| 995 | B6 |

Each binder was assayed against T5, human ILT8 expressed on CHO-K1 cells (human, UniProt Q6PI73 24-481) (assay: cell-based ELISA on CHO-K1 cells expressing human ILT8, HRP anti-mouse IgG, OD 450-650 nm).
T5 construct: whole, on cells; also called CHO-ILT8
Method: (§1) Mouse anti-human ILT3 antibodies were tested for binding to human ILT3, and cross-reactivity to Rhesus monkey ILT3, human ILT5, human ILT7, human ILT8, and human ILT11 expressing CHO-K1 cells using a cell-based ELISA format. CHO-K1 cells were plated in 96-well tissue-culture plates in 50 μL of DMEM/F12, 10% BCS and gentamycin (CHO-K1 media). Cells were plated at either 2×10⁴ cells/well two days prior to the assay or 4×10⁴ cells/well one day prior to the assay. Media was removed from the wells prior to adding the test samples. Purified antibody was serially-diluted in CHO-K1 media and added to the CHO-K1 plates. The samples were incubated at room temperature for 30-60 minutes and plates were washed three times with PBS/05% Tween-20 using the cell wash program on the Biotek EL405x Select CW plate washer. Binding was detected using an HRP-conjugated goat anti-mouse IgG (Southern Biotech cat #1031-05) secondary antibody added at a 1:2000 dilution in CHO-K1 media and incubated at room temperature for 30-60 minutes. Assay plates were washed as above and developed with TMB and stopped with TMB stop solution (KPL cat #50-85-06). […] Mouse IgG1 (MIgG1) served as a control.

T5 sequence (Q6PI73 24-481): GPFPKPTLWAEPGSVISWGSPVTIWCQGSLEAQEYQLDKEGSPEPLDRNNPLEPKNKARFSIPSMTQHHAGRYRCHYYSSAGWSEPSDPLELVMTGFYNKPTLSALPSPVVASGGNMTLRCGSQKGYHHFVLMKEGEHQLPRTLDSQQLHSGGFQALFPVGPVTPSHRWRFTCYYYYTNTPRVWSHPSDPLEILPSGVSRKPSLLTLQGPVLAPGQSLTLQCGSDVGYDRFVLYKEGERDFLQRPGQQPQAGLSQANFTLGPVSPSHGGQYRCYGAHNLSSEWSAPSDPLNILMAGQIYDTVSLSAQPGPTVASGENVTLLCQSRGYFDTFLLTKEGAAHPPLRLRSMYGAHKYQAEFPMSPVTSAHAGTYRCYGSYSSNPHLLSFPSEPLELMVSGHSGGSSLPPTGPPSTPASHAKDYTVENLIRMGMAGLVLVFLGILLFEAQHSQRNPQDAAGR

| EC50 (read off the curve) [µg/mL] | binding result | Binder |
| --- | --- | --- |
| ~0.02 |  | B7 |
|  | no binding (tested: 10000 ng/ml) | B2 |

What follows are binders tested against T3, human ILT3 expressed on cells (assay: cell-based or functional assay).

| TNFα secretion by human monocyte-derived dendritic cells polarized with IL-10 and LPS; concentration giving half of the maximal increase (EC50) [µg/mL] | Binder |
| --- | --- |
| ~0.0019 | B1 |

The binders below were run against T3, human ILT3 expressed on cells (assay: cell-based ELISA on CHO-K1 cells expressing human ILT3, HRP anti-mouse IgG, OD 450-650 nm).

| EC50 (read off the curve) [µg/mL] | Binder |
| --- | --- |
| ~0.02 | B7 |

Target: T3, human ILT3 expressed on cells
Test: cELISA, CHO human ILT3 cells
Remark: another data set of the same source
Method: (§2) Mouse anti-human ILT3 antibodies were tested for binding to human ILT3, and cross-reactivity to Rhesus monkey ILT3, human ILT5, human ILT7, human ILT8, and human ILT11 expressing CHO-K1 cells using a cell-based ELISA format. CHO-K1 cells were plated in 96-well tissue-culture plates in 50 μL of DMEM/F12, 10% BCS and gentamycin (CHO-K1 media). Cells were plated at either 2×10⁴ cells/well two days prior to the assay or 4×10⁴ cells/well one day prior to the assay. Media was removed from the wells prior to adding the test samples. Purified antibody was serially-diluted in CHO-K1 media and added to the CHO-K1 plates. The samples were incubated at room temperature for 30-60 minutes and plates were washed three times with PBS/05% Tween-20 using the cell wash program on the Biotek EL405x Select CW plate washer. Binding was detected using an HRP-conjugated goat anti-mouse IgG (Southern Biotech cat #1031-05) secondary antibody added at a 1:2000 dilution in CHO-K1 media and incubated at room temperature for 30-60 minutes. Assay plates were washed as above and developed with TMB and stopped with TMB stop solution (KPL cat #50-85-06). The absorbance at 450 nm—620 nm was determined. Mouse IgG1 (MIgG1) served as a control.

| EC50 [µg/mL] | Binder |
| --- | --- |
| 0.0155 | B2 |
| 0.0214 | B3 |
| 0.0077 | B4 |
| 0.002 | B5 |
| 0.0179 | B6 |

What follows are binders tested against T6, human ILT11 expressed on CHO-K1 cells (human, UniProt A6NI73 42-299) (assay: cell-based ELISA on CHO-K1 cells expressing human ILT11, HRP anti-mouse IgG, OD 450-650 nm).
T6 construct: whole, on cells
Method: as §1

T6 sequence (A6NI73 42-299): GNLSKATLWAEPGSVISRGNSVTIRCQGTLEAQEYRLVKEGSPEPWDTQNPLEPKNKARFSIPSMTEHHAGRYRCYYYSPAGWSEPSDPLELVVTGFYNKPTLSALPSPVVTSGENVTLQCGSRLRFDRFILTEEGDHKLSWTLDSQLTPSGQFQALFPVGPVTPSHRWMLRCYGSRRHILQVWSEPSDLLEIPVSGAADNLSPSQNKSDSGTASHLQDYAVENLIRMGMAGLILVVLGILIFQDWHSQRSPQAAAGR

| binding result | Binder |
| --- | --- |
| no binding (tested: 10000 ng/ml) | B2 |

Target: T2, Human ILT3 (LILRB4) extracellular …
Test: SPR (Biacore), human ILT3-His
Remark: another data set of the same source

| Kd [pM] | Binder |
| --- | --- |
| 460 | B1 |
| 658 | B2 |
| 21 | B3 |
| 12 | B4 |
| 6990 | B5 |

What follows are binders tested against T7, human ILT5 expressed on CHO-K1 cells (human, UniProt O75022 24-631) (assay: cell-based ELISA on CHO-K1 cells expressing human ILT5, HRP anti-mouse IgG, OD 450-650 nm).
T7 construct: whole, on cells; also called CHO-ILT5
Method: as §1

T7 sequence (O75022 24-631): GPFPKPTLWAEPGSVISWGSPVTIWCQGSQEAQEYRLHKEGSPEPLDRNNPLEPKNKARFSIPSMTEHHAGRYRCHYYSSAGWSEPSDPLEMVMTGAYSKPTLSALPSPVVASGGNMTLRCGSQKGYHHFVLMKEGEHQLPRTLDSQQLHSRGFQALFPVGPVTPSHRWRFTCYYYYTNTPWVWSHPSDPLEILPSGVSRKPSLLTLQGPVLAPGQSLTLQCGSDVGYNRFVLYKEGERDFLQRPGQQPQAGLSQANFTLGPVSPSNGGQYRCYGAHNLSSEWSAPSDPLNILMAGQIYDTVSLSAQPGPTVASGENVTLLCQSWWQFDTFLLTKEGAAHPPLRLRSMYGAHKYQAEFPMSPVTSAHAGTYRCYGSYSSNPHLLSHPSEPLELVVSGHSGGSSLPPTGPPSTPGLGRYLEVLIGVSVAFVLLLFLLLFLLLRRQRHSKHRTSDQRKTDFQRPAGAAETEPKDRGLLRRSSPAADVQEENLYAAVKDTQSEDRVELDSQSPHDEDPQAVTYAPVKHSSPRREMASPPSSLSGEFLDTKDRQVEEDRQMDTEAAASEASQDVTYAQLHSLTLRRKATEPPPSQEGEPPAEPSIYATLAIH

| binding result | Binder |
| --- | --- |
| no binding (tested: 10000 ng/ml) | B2 |

Target: T4, rhesus ILT3-His tagged recombinant …
Test: SPR (Biacore), rhesus ILT3-His
Remark: another data set of the same source

| Kd [pM] | Binder |
| --- | --- |
| 24400 | B2 |
| 126 | B3 |
| 150 | B4 |
| 18000 | B5 |
| 946 | B6 |

Target: T1, Rhesus monkey ILT3 expressed on CHO-K1 …
Test: cELISA, CHO rhesus ILT3 cells
Remark: another data set of the same source
Method: as §2

| EC50 [µg/mL] | Binder |
| --- | --- |
| 0.0232 | B2 |
| 0.0231 | B3 |
| 0.0095 | B4 |
| 0.018 | B5 |
| 0.0259 | B6 |

What follows are binders tested against T8, human ILT7 expressed on CHO-K1 cells (human, UniProt P59901 24-499) (assay: cell-based ELISA on CHO-K1 cells expressing human ILT7, HRP anti-mouse IgG, OD 450-650 nm).
T8 construct: whole, on cells
Method: as §1

T8 sequence (P59901 24-499): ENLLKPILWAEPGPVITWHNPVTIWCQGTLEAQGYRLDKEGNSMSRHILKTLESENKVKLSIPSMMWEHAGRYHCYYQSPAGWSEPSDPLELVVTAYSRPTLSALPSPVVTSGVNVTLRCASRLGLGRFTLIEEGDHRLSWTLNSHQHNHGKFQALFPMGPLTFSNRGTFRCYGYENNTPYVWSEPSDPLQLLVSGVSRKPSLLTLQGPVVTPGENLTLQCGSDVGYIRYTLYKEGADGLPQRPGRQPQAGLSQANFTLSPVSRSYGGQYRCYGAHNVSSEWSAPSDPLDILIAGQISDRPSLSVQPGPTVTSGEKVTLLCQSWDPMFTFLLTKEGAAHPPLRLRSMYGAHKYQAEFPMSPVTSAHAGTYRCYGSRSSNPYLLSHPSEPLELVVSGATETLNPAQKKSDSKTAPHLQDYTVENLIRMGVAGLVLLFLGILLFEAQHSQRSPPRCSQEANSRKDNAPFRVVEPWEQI

| binding result | Binder |
| --- | --- |
| no binding (tested: 10000 ng/ml) | B2 |
